Each block holds one binder with its values, some of them ahead of it.
Biological target: Thrombospondin-1 (human, purified from platelets) (human, UniProt P07996 19-1170, 125I label (where used as 125I-TSP1))
Experiment: radioligand binding

Sequence of Thrombospondin-1 (human, purified from platelets) (P07996 19-1170): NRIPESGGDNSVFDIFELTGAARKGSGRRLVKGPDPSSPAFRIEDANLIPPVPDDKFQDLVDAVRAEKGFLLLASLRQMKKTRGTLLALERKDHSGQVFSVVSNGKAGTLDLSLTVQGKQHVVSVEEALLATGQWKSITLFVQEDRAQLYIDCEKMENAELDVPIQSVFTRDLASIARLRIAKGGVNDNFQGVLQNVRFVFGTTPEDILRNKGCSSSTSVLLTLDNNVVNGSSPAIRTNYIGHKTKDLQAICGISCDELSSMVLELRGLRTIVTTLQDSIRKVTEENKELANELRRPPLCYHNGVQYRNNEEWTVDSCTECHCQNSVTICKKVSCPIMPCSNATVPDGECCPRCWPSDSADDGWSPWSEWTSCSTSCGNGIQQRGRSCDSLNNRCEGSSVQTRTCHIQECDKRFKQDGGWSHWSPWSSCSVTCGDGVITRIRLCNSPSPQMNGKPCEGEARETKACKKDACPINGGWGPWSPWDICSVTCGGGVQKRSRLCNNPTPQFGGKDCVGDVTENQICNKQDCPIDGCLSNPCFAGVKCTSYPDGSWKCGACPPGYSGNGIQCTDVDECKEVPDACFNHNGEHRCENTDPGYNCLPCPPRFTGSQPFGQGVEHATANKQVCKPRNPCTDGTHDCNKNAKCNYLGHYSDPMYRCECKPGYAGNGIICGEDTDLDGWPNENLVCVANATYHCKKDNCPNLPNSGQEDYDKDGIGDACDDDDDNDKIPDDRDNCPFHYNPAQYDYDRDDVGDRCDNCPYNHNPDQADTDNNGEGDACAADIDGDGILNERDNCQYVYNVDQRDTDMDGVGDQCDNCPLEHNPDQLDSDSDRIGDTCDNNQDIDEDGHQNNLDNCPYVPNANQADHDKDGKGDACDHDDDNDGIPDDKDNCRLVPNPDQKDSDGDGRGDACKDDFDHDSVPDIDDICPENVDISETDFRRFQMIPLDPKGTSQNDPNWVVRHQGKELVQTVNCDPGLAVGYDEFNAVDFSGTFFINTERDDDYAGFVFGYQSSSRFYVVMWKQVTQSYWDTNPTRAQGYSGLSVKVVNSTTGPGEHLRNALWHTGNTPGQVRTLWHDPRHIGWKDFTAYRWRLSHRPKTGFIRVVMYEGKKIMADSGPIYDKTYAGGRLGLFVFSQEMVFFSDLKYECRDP

Kd: 48 nM
B1: full-length recombinant human sFRP-1 (natural protein, UniProt Q8N474 32-314, looked up)
chain: SEYDYVSFQSDIGPYQSGRFYTKPPQCVDIPADLRLCHNVGYKKMVLPNLLEHETMAEVKQQASSWVPLLNKNCHAGTQVFLCSLFAPVCLDRPIYPCRWLCEAVRDSCEPVMQFFGFYWPEMLKCDKFPEGDVCIAMTPPNATEASKPQGTTVCPPCDNELKSEAIIEHLCASEFALRMKIKEVKKENGDKKIVPKKKKPLKLGPIKKKDLKKLVLYLKNGADCPCHQLDNLSHHFLIMGRKVKSQYLLTAIHKWDKKNKEFKNFMKKMKNHECPTFQSVFK

Kd: 95 nM
B2: full-length recombinant human sFRP-2 (natural protein, UniProt Q96HF1 25-295, looked up)
chain: LFLFGQPDFSYKRSNCKPIPANLQLCHGIEYQNMRLPNLLGHETMKEVLEQAGAWIPLVMKQCHPDTKKFLCSLFAPVCLDDLDETIQPCHSLCVQVKDRCAPVMSAFGFPWPDMLECDRFPQDNDLCIPLASSDHLLPATEEAPKVCEACKNKNDDDNDIMETLCKNDFALKIKVKEITYINRDTKIILETKSKTIYKLNGVSERDLKKSVLWLKDSLQCTCEEMNDINAPYLVMGQKQGGELVITSVKRWQKGQREFKRISRSIRKLQC

From article PMC3085965 (Archives of biochemistry and biophysics, 2011)
